In PMC5345129:

Key:
[1] = biological target: myc-tagged, constitutively active Gα12 (GTPase-deficient Q229L mutant) (UniProt P27600); assay: GST co-precipitation (pull-down), immunoblot bands quantified with ImageJ; conditions: parent: 100; read off a plot
[2] = biological target: GST-fusion of the RH domain of LARG (leukemia-associated RhoGEF); assay: GST co-precipitation (pull-down) from HEK293 cell extracts, immunoblot bands quantified with ImageJ; conditions: parent: est. 100; read off a plot
[3] = biological target: GST-fusion of the 257-amino acid region of p114RhoGEF corresponding to the Gα12-binding region of AKAP-Lbc; assay: as above; conditions: parent: est. 100; read off a plot
[4] = biological target: GST-fusion of the 257-amino acid C-terminus of AKAP-Lbc; assay: as above; conditions: parent: est. 100; read off a plot
[5] = biological target: T1, GST-fusion of the 257-amino acid region of p114RhoGEF corresponding to the Gα12-binding region of AKAP-Lbc (human); assay: pull-down; GST fusion proteins bound to Glutathione Sepharose 4B; Gα variants from high-speed supernatants of transfected HEK293 cells, detergent diluted to 0.05% polyoxyethylene-10-lauryl ether; 50 mM HEPES pH 7.5, 1 mM EDTA, 3 mM dithiothreitol, 10 mM MgSO4; 2 h at 4°C; three washes; immunoblot (anti-Gα12, anti-myc or anti-EGFP); 5% of the extract kept as load
T1 sequence (Q6ZSZ5 whole entry, looked up): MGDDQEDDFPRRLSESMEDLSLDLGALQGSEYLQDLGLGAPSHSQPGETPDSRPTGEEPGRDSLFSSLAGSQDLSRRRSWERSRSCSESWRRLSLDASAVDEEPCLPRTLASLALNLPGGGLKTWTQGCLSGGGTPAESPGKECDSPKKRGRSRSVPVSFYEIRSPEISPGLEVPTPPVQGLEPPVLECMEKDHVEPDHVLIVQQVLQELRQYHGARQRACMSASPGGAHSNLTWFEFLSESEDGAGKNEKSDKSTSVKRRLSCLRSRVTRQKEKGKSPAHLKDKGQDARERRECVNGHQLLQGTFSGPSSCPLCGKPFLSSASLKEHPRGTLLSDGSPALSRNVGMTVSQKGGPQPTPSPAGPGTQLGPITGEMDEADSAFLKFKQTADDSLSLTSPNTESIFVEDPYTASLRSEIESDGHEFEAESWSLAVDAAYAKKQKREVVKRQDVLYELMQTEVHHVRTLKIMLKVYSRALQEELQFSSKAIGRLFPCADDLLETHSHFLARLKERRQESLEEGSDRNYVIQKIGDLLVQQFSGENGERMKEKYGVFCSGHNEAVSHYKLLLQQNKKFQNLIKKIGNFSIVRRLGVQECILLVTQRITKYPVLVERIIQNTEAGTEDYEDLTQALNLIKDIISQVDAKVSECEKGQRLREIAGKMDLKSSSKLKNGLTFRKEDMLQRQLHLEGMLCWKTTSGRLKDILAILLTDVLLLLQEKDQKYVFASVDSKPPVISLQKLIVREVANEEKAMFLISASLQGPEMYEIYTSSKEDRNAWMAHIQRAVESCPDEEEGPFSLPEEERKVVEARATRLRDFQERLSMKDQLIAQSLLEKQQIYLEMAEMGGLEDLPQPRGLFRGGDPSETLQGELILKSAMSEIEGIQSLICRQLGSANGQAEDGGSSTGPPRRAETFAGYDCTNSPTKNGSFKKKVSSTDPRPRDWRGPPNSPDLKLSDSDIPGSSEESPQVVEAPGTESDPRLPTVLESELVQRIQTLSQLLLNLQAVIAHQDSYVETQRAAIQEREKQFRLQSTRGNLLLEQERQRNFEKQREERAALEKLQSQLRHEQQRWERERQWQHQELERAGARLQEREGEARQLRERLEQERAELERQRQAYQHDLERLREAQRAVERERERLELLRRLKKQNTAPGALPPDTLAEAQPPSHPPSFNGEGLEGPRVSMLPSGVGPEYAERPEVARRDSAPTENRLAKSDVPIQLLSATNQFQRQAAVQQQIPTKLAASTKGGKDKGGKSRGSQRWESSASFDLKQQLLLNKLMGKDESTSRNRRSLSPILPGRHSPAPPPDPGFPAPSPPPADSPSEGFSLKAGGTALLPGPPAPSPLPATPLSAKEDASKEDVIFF

[6] = biological target: GST-fusion of the 257-amino acid C-terminus of AKAP-Lbc (human); assay: as above
GST-fusion of the 257-amino acid C-terminus of AKAP-Lbc (human), sequence (Q12802 whole entry, the tested form may be a part): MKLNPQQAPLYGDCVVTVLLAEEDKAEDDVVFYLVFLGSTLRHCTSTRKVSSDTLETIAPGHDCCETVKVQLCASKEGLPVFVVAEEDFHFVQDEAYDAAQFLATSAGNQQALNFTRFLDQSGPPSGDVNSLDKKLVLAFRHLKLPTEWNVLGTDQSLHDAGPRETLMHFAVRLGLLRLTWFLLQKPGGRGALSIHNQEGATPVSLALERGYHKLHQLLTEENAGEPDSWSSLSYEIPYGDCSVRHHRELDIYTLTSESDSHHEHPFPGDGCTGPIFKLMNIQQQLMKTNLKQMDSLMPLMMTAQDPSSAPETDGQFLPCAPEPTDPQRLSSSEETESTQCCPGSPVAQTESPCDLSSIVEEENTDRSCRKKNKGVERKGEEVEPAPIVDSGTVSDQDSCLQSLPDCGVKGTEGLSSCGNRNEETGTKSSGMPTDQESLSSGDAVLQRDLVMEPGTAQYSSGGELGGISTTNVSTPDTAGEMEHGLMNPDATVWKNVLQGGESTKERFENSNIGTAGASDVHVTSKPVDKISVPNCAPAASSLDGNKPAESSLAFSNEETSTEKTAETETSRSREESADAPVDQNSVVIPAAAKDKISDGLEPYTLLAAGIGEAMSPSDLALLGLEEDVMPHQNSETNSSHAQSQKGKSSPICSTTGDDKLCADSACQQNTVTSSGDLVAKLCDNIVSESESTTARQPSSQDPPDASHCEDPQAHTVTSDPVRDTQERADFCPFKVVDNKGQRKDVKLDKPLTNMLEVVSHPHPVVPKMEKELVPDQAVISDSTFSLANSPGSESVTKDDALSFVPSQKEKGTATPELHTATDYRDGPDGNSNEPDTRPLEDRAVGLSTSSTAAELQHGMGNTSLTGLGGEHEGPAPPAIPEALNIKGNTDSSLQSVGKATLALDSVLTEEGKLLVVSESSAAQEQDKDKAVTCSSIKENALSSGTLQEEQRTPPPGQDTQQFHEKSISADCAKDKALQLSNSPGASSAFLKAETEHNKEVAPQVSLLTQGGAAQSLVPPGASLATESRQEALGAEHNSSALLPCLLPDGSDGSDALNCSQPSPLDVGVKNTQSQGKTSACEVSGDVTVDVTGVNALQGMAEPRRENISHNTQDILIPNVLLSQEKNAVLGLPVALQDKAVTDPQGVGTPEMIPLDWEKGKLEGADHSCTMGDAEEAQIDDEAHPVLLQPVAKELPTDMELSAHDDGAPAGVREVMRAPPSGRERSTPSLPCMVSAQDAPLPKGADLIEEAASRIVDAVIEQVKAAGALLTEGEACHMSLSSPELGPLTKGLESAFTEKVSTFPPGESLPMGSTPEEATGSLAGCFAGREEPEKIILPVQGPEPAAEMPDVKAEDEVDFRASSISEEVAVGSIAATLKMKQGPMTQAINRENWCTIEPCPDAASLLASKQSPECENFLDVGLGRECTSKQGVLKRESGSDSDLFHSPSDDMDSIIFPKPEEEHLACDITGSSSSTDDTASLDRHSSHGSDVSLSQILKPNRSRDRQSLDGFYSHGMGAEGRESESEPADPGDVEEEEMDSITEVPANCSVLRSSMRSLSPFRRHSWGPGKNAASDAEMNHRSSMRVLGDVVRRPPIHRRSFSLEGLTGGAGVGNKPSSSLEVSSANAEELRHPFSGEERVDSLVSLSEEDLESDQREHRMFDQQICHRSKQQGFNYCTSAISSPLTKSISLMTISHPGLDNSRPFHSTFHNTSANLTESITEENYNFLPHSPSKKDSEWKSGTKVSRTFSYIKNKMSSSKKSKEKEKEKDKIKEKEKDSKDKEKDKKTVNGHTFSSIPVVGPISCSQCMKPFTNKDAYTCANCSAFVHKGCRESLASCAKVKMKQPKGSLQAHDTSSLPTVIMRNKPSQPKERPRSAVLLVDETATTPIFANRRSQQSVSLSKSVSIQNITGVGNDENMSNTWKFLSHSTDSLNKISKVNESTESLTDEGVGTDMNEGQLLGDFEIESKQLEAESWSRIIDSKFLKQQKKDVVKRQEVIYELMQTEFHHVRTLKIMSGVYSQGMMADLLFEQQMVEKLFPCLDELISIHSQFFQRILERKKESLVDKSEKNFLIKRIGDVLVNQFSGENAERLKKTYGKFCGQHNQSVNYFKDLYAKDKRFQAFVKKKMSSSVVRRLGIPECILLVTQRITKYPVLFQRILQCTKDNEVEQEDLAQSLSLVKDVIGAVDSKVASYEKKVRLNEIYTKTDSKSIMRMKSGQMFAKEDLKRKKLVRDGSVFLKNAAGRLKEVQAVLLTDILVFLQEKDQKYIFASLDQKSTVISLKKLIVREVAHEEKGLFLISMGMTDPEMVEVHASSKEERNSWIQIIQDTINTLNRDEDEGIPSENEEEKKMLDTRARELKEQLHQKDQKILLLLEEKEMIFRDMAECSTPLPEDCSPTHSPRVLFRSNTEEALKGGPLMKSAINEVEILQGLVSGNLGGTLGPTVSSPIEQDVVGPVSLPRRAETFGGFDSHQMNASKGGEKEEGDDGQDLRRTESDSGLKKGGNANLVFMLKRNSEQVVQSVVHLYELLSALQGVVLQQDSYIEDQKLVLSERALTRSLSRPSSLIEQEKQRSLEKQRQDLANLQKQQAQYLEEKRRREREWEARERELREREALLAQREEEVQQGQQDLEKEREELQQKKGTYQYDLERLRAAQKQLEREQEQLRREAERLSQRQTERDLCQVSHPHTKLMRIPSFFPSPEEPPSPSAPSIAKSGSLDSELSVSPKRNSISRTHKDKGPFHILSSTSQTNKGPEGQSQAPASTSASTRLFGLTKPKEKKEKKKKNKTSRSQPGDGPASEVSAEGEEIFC

GST-fusion of the 257-amino acid C-terminus of AKAP-Lbc E2576R
percent of parent [1]: 29 % of control

GST-fusion of the 257-amino acid C-terminus of AKAP-Lbc E2670R
percent of parent [1]: 33 % of control

GST-fusion of the 257-amino acid region of p114RhoGEF corresponding to the Gα12-binding region of AKAP-Lbc E695R
percent of parent [1]: 42 % of control

GST-fusion of the 257-amino acid region of p114RhoGEF corresponding to the Gα12-binding region of AKAP-Lbc E789R
percent of parent [1]: 37 % of control

myc-tagged, constitutively active Gα12 (GTPase-deficient Q229L mutant) (from UniProt P27600) C11A
percent of parent (% of 12QL control) [2]: 92

myc-tagged, constitutively active Gα12 (GTPase-deficient Q229L mutant) (from UniProt P27600) Δ244-249 (sextet Asn-Ala-Ala-Ile-Arg-Ser in place of native residues 244-249)
percent of parent (% of 12QL control) [3]: 95
percent of parent (% of 12QL control) [4]: 105
percent of parent (% of 12QL control) [2]: 16

B1: myc-tagged, constitutively active Gα12 (Q229L) with C11A substitution (natural protein)
chain: MSGVVRTLSRALLPAEAGARERRAGAARDAEREARRRSRDIDALLARERRAVRRLVKILLLGAGESGKSTFLKQMRIIHGREFDQKALLEFRDTIFDNILKGSRVLVDARDKLGIPWQHSENEKHGMFLMAFENKAGLPVEPATFQLYVPALSALWRDSGIREAFSRRSEFQLGESVKYFLDNLDRIGQLNYFPSKQDILLARKATKGIVEHDFVIKKIPFKMVDVGGLRSQRQKWFQCFDGITSILFMVSSSEYDQVLMEDRRTNRLVESMNIFETIVNNKLFFNVSIILFLNKMDLLVEKVKSVSIKKHFPDFKGDPHRLEDVQRYLVQCFDRKRRNRSKPLFHHFTTAIDTENIRFVFHAVKDTILQENLKDIMLQ
% loss of binding (co-precipitated Gα12 normalized for starting material, against non-mutated Gα12 Q229L) [5]: 72%
% loss of binding (co-precipitated Gα12 normalized for starting material, against non-mutated Gα12 Q229L) [6]: 60%
